Test: soluble on expression in E. coli; label from the status in PepcDB or PDB records

Sequence: LVPRGSAMGISNDSSRGANRTIVVTTILESPYVMYKKNHEQLEGNERYEGYCVDLAYEIAKHVRIKYKLSIVGDGKYGARDPETKIWNGMVGELVYGRADIAVAPLTITLVREEVIDFSKPFMSLGISIMIKKGTPIESAEDLAKQTEIAYGTLDSGSTKEFFRRSKIAVYEKMWSYMKSAEPSVFTKTTADGVARVRKSKGKFAFLLESTMNEYIEQRKPCDTMKVGGNLDSKGYGVATPKGSALGTPVNLAVLKLSEQGILDKLKNKWWYDKGECG
- soluble on expression in E. coli: soluble

Sequence: MQKQKSFDKQTTKGKLYLVPTPIGNLEDMSIRCLNILKEATVIASEDTRNTQKLLNHFEITTPQISLHEHNYKERIPQLITRLLNGETIAQVSDAGMPSISDPGHELVTACLEEELAVIALPGPTAGMTALIASGLLPQPFTFYGFLPRKKKEQKDVLSALKEERPTQIFYESPYRIAKTVATFAEVYGQERPAVICRELTKLHEEYLRGTLGELTEYLAENTLKGECCLLVSGFTGEKETIAAMPAISLKEHVQVLMEEEGRSSKEAIKEVAKLRNVKKQEVYKEYHSI
- soluble on expression in E. coli: not soluble

Sequence: SASRGYLHHLLTAEGAWEEFVSKAKLPRDRAVALHKALRDLTALLAIAERGRSRKGWKGKEKFVKAFPCLKADLEEHISQLYALADHAEELHRGCTVSNMVADSFSVASDILNLFGLFLAPESAEGSLVLSAAGLGLGVAATVTNVATSIMKETSRVLDGVEAGHHGSTAMDILEEAGTSVARIASEIPQATRDITRDLEALEQHMNALSLVRANPRLEEDARALINAGSIPAQRAKQVRASLKGTPLAMSKEDRIRSATTTGVTLLRDVGSLVNESKQLYEGSASESAAALRKLAQELEEKLGELMKFYETI
- soluble on expression in E. coli: not soluble

Sequence: MGSDKIHHHHHHMRLGFYNIQGGTGKTTIAANIGYYLSDKTKTVYVDCDIYAGCGALLFGFEDSPHTLNSYLSGASALTDIIHQFDDLSVIVADSTPNSFNTEINQKRMLELIRVLNDNYDIVLLDLPPNITEGNLLFSSLNLEEKVVNKMIVVAEDSIPGIANTMKTKELLYAIDIDCIGVIVNKFKDTVDFDEALDDIIAILPYDKKVENQWMENVPAVQMKSKFSKELSYLAEDLAEVYIKKDLAAVRALKVAKELKDMTSKRQDVEEDEF
- soluble on expression in E. coli: not soluble

Sequence: MLLMKTASKTNNSVRRNMNTHSAISELIAPWLELTDPKLAALVITHLELDSRLIKSGDTFVAIQGHAVDGRQFIDKAIAQGANLVLAEADAQHLNGWVEYRAGVPVIYLAELGQHLSELAGRLYGGHHNQLIGVTGTNGKTTITQLIAQWLELLGHKAAVMGTTGNGFLNALEPAANTTGNALQIQATLRDLAERGAQYTALETSSHGLVQGRVKKLHFVAGVFSNLSRDHLDYHGTMEAYAAAKFSLFSEHACQNAIINVDDAVGAQWVKQLPQAIGVSLVTKPNTAQAIWAREVAYAESGITLNFESSWGEGELHAPLIGEFNACNLLLALATLLSLGFEKSALLATAPKLRPVLGRMELFQREQKAKMVVDYAHTPDALEKALRALRVHCAGQLWAIVGCGGDRDRGKRPMMAAIAEQFADRVILTDDNPRSESPQAIVADMVAGLTYPERAHIEHHRFQAASYALQHAGAQDIILLAGKGHEDYQVLANETIHYSDRETAQQLLELQP
- soluble on expression in E. coli: not soluble

Sequence: MTKKLIKIWRKEMLALMNEDADWYRNEDTERFKRIQELARKIETANTRQFSSHISKERFEAYQKMGLQFKEIAEEFHITTTALQQWRKDNGYPIYNKNNRK
- soluble on expression in E. coli: not soluble

Sequence: MSQEQLVAVNELNENLGKVLIKIARDSIANKLGILKINLEDYLSSLNDPILNKKGLAFVTLETYYGNSTSLRGCIGYVEAVAPLKEIVSKAAIAAAFSDPRFPPLSKGEFDNIIIEVTVLTKPQEIDVENRWELPKKIKVGEDGLIVEYGILYSGLLLPQVPMEYCWDEETFLAETCIKAGLEPDCWLNNKVKIKKFQGIIFREEKPKSEKILIIKPSEVKCKKEEISLL
- soluble on expression in E. coli: soluble

Sequence: MSLTNFVCHTLYHLLITIIKLKDKENTRIFICDTITDYETWVKILNDQGIRTESFKEFAYREQLQNKNIEEVMELVDSDLNHYFERVDTQVYLFNDDTLIGRYMVYLGKNYHLIEDGYNCFQAKLFLGGSVVKRVIKTYLFKKYVPYGFSKYCLSIEVNSLVGLPHDIRSKKYKELPRKKLFDSLNKEQKSLIFKIFKTKPLTITPKSVLLLTQPLAQDKWYKTPTERFQSIQEQYDYFDDIVQEYRTLGYNVYLKVHPRDVVDYSKLPVELLPSNVPMEIIELMSTGRFECGITHSSTALDSLTCVDKKITLVDLKDIKEGHHHHHH
- soluble on expression in E. coli: not soluble

Sequence: MKIIKRNGSEAVFDISKIMMAVSRANEVVQANQKLSKAQINAIAAQVEEVCSTRPHAMNVEEIQDLVENQIMEQQAFEVARKYITYRYIRTLKRSSN
- soluble on expression in E. coli: not soluble

Sequence: MLRRYSHFYSIRYSSTLLSTLDGLTNRTSGDKLLTYSEKFSKLYANSTPETRKSIFVDLVTNYGVNKEALNHAISLYSKNDQMYPEVRTSATASYVNLIKSIGNLPGGVMQVCEMRANILALLKRETDKTTTSYLRHIELATREVLTSWFSLGNLKLERLTWSSPGDILQKVAEYEAVHPVRGLSDFRKRLGPLRRCFYFSHEALPRNPLVMVHVALVDEIADSVQEITKRGAPTGKEEDQTTAIYYSITSTQPGLSGIDLGNMLIKKVATKLQKDVPSVTTHSTLSPIPGFRPWLIRNLKGNSEYPSIMNEKVVNWISDISEREMNEVEATETLLKVISNEKTKKEQLNAIQHILMYACAHYLCNAKRNGMALNSVANFHIRNGAELYRLNWNGDTSHRGINNSFGIMVNYRYDLEKVHENSAAYTEHKKMAINQKVLDIF
- soluble on expression in E. coli: not soluble

Sequence: MSLTSKMMAFLPYFLELKGKRVNIQALINDRVSQAIEAAGAPAGTPALVRQSAKAQFGDYQANGIMGAAKQLGTNPREFAQKVLDVLNLEGIASKTEIAGPGFINIFLSEEFLAAQAEAALADARLGVAQEAPKTIVADYSAPNVAKEMHVGHLRSTIIGDAVVRTLEFLGHKVIRANHIGDWGTQFGMLIANLERVQKASGEVSMELSDLEAFYRESKKLYDEDEQFAETARNYVVKLQGGDPFCLEMWKKLVDVTMIQNQRNYDRLNVSLTRENVMGESMYNDMLPQIVSDLKAKGLAVEDDGAQVVFLEEFKNKDGEPMGVIIQKRDGGFLYTTTDIACAKYRYETLGADRVLYFIDSRQHQHLMQAWTIVRKAGYIPENVSLEHHAFGMMLGKDGRPFKTRAGGTVRLADLLDEAQERAKALIESKNPELSAEEKANIANTVAMAAVKYADLSKHRTTDYVFDWDNMLAFEGNTAPYMQYAYTRVASVFAKAGVDMNELTGHIQITEEKEKALIAKLLQFEEAVQSVAREGQPHIMCSYLFELAGIFSSFYEACPILVAEQESIKQSRLKLAALTAKTIKQGLALLGIDTLERMEGHHHHHH
- soluble on expression in E. coli: soluble

Sequence: MGSDKIHHHHHHMTYSKQSEWREIQSYLPKKYHFTDNYHPTEEWWNWKGHEVHLDCFRNEKAPVKVILLHGVGTNGRQMSMILGGPLSKDGFETIAIDMPTYGVTKVKKGSVVKYDDWVDLACDYIDYEQQRDDRPIVLYGLSAGGMETYHVAAKNKKVKGIIGMTFLDQKNQQVRDETAKNLVMSRVGIPMAGIACNIGLENFKMKMSTASKMSALCNNEKVMEIFNRDKTSAANKASMRFLDSYGNYQPAMEPEDFDVCPILLTQPEQDKWTPLHLSTPFLNKIKKVDVKIVMLENGGHYPVEQPALDQMHDAIVEFIYKVTK
- soluble on expression in E. coli: not soluble

Sequence: MNYYSEKIEVVKLADQVAAKLQQLIGSGEYKKGDKIPTEPELMARFGVGRSTVRESVRILANAGLLSVLQGKGTFVQDTTVVAEPLHQRLRRANNKELNEVRHMLEITMVQKAAENRTEKEVKQMRTLLNQRRRAIEEQLQDECLNADIAFHVVIAEASKNQVLIDLYKTFSKVISEYFQTEYPDTKAYKRSQALHEKLCDAIATKESKKAAEYMSQILSLD
- soluble on expression in E. coli: not soluble

Sequence: MGSDKIHHHHHHMTKPPTLRPRFWETVPLDRMTPSEWEALCDGCGKCCLNKIEFEDTGEVAFTRIACRLLDGDSCRCSNYEIRRQFVPDCVQLSPATLPKIVYWMPRTCAYRLLHEGKSLPGWHYLLTGDRNSVHDAGASVQGWTVPEFEVAEEDWEDHIIEETP
- soluble on expression in E. coli: not soluble

Sequence: MVRLIHTLADHGDDVSCCAFSAALLATCSLDKTIRLYSLSDFAELPYSPLKFHTYAVHCCCFSPSGHVLASCSTDGTTVLWSSHSGHTLTVLEQPGGSPVRVCCFSPDSAYLASGAADGSIALWNAQTYKLYRCGSVKDSSLVACAFSPDGGLFVTGSSGGDLTVWDDRMRCLHSEKAHDLGITCCSFSSQPLSGGEGLQSYQLASCGQDCEIKLWAVTITRVLGFELKYKSTLSGHCAPVLACAFSHDGKMLASGSVDKSVIIHGIGPQSVLHTLTQHTRYVTTCAFAPNTLLLATGSMDKTVNIWQFDLETPCQGSMNDPLKHFTEEWSEEDVSVWLRAQGLEDLVGIFRANNIDGKELLHLTKESLAGDLKIESLGLRSKVLRSIEELRAKMDSLSSGIPDEFICPITRELMKDPVIASDGYSYEREAMESWIHKKKRTSPMTNLALPSLVLTPNRTLKMAINRWLETHEK
- soluble on expression in E. coli: soluble

Sequence: MSLVVEQVKPNTGQEVQQIGQLQATKVKLPSTTKVALTKETQYLRNQVIASPVALFEIPADRGQMTLTITSEISDSVFYPHVMIVDAQGQVVESYEEVTFEYRKPRLHLGNRLVAELDFYPPQGYKSLFVLVYTKQQDLKGVTYVAHPARIDAEARGNYLPEVKDIPVPHTLTGTIELDVSGPSFLSFVRSEDRQTTTSTDAAKTQIQVQPDTQTYYFSSIERAVQANDLPKALSLLDEAKALGIEGAQEVFVKAVNARKEGHHHHHH
- soluble on expression in E. coli: soluble

Sequence: SGLRDWLRTVCCCCGCECLEERALPEKEPLVSDNNPYSSFGATLVRDDEKNLWSMPHDVSHTEADDDRTLYNLIVIRNQQAKDSEEWQKLNYDIHTLRQVRREVRNRWKCILEDLGFQKEADSLLSVTKLSTISDSKNTRKAREMLLKLAEETNIFPTSWELSERYLFVVDRLIALDAAEEFFKLARRTYPKKPGVPCLADGQKELHYLPFPSP
- soluble on expression in E. coli: soluble

Sequence: MSLGFFNKLRQLAEDGTKMAQDGYARFNNAAFADATMAACALIGAADGQIDSQERSRTAQFITSSDKLRTFDVSKLREKYERYCDVISRDFDFGKIELMQVIGKVRKPEEARAVVQLAVVIANADGDFDAREQAVMREVIHALGLSPAEFGEGGSHHHHHH
- soluble on expression in E. coli: soluble

Sequence: MSDGIPFAGEPADSHEAIMRATFRALREYGYAGLSIQRIADEADLSKSTFYHHFDGKEDLLLSFQEFILTEFNRIFQIESTGDPEQDIKTFVSLILDDFPDCVETPTKNAVLGSYVEMRAQAVQNPDFREKFTETDELFARQLVQIIEDGIEQGVFADVDPDTVSRFMITILDGVILQSATRNDNPVAEVRDTIDEYIEETLILNT
- soluble on expression in E. coli: not soluble

Sequence: MEINVQSDVGRKRNTNQDYANVFENQQHITFAVLADGMGGHQAGDVASQMAVNNLGESWSNASVDSAEKSAQWLIQAIQKENEKIYERGQSKPEYLGMGTTVVGAILLPDSFVLANVGDSRAYLVRDQHMLQLTEDHSLVNELVKSGEITREMAANHPRKNVLTRSLGMPGTVEVDVTNHEWLPNDYLLLCSDGLTNMVPETKILEILETSDPLESKLSQLVAQANEAGGLDNITVLVIHFDEQKEENQ
- soluble on expression in E. coli: not soluble
